# Literature values, collected in US20240216555A1, “TARGETING AND TREATMENT OF CANCEROUS CELLS USING RADIOLABELED GRP78-BINDING AGENTS” (University of Kentucky Research Foundation, priority 2022, published 2024).
# Where no end group is shown, it is not given here.
# What was measured:
# csGRP78 [1] = target: T1, csGRP78 (Homo sapiens, UniProt P11021); conditions: previously shown; cited from earlier work
# csGRP78 [2] = target: T1, csGRP78; conditions: previously shown; cited from earlier work; remark: listed apart in the source
# T1 sequence (P11021 19-654): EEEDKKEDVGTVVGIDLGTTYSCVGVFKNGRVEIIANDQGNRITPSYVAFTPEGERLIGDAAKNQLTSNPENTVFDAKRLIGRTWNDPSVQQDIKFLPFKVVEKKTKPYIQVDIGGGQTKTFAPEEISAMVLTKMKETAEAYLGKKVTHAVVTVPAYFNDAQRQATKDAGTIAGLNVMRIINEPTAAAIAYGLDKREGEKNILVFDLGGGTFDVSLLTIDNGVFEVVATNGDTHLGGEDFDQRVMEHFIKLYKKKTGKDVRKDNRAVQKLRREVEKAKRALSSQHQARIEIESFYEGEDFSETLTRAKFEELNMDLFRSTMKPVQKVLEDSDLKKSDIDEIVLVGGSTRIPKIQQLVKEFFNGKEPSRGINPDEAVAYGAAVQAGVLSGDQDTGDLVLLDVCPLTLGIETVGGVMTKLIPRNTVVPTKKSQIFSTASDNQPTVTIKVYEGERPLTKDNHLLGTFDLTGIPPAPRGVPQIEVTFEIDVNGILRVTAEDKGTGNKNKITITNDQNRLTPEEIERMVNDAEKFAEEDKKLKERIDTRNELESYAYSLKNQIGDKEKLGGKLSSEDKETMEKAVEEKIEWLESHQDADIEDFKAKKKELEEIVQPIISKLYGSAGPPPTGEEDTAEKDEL
sequence,measurement,setting,value
CTVALPGGYVRVC (also: cyclic (type not given here)),binding to csGRP78,csGRP78 [1],bind to csGRP78
same,translocation to the ER,csGRP78 [2],translocate to the ER
